Patent US20140287471A1, “VARIANT CBH I POLYPEPTIDES WITH REDUCED PRODUCT INHIBITION” (BP CORPORATION NORTN AMERICA INC., priority 2011, published 2014)
Read-outs that look alike come from different tables or passages of the source.

Experiment: 4-MUL cellobiose tolerance/inhibition assay, dose-response IC50 (Example 2)
Assay type: biochemical
Description: CBH I activity on was measured using the 4-MUL assay using gluconolactone to inhibit any BG activity. The fluorogenic 4-MUL substrate (SIGMA) was prepared at 100 mM concentration in DMSO. Assays were run in black 96-well-flat-bottomed plates (Costar) and 4-MU fluorescence was read on a BioTek H4 plate reader (ex/em 365/450 nm). Assay plates were filled with buffer (final concentrations of 100 mM MES, pH 6, 25 mM gluconolactone, with or without cellobiose; cellobiose concentrations are listed with appropriate data sets), to which enzyme mixture was added (10-30 μl, 5 μg/mL final) and then assays were initiated by addition of 4-MUL (0.5 mM final concentration in 100 μl total volume). Enzyme mixtures were either CBH I variants from harvested supernatants or standards. Standards included: a negative control, consisting of harvested supernatant from the CBH I knock-out strain; a positive control, consisting of wild-type CBH I from harvested supernatants; and, a commercial CBH I standard (E-CBHI from Megazymes). Activity standards were run by serial dilution of commercial CBH I from 40 to 0.02 μg/mL and 4-MU (SIGMA, prepared at 20 mM in DMSO) (in dilution increments of 2-fold; all dilutions were made using harvested supernatant from the knock-out control). Kinetic rates were monitored over the first 15 mins following 4-MUL addition; initial rates were calculated based on data in the linear range. After 1 hr, a final endpoint read was taken, both before and after reaction quenching (100 μL of 200 mM Sodium Carbonate, pH 10.0). Activity was calculated for kinetic and endpoint reads; background resulting from the CBH I knock-out supernatant remained negligible. 4MU standard curves and HPLC quantification values were used to calculate specific activity.
Tolerance/inhibition values represent activity ratios and/or percent activity remaining/percent activity decreased in the presence versus the absence of cellobiose. Tolerant variants show less inhibition in the presence of cellobiose as compared to wild type, where an activity ratio of 1 (with vs. without a given concentration of cellobiose) is equivalent to 0% inhibition by cellobiose, or 100% tolerance. The effect of cellobiose on CBH I variant performance was monitored by dose-response in the 4MUL assay. Dose-response curves were generated by assaying variant activity in the presence of 6-8 different cellobiose concentrations ranging up to 100 mM cellobiose. CBH I samples were diluted to 5 μg/mL final concentration or were used directly in the case of protein quantification levels below 5 μg/mL. Half maximal inhibitory concentration (IC50) values were determined by plotting 4MUL activity versus cellobiose concentration and fitting with a four parameter dose-response fitting algorithm, with zero activity (or 100% inhibition) constrained to background activity (as established by CBH I knockout values) and with automatic outlier elimination (on GraphPad Prism 5).
Harvested supernatants from active variant isolates were evaluated for cellobiose tolerance at 1 mM cellobiose in the 4-MUL activity assay. Table 8 lists the tolerance of variants at 1 mM. […] Additional cellobiose concentrations at 0.25, 5, 10, 50, and 100 mM were tested leading to full dose-response curves for which half maximal inhibitory concentration (IC50) values were generated (Table 8). The IC50 values support that the variant library has decreased product inhibition, or increased tolerance to cellobiose, when compared to the wild-type enzyme (WT IC50=0.03 mM; see first entry, Table 8).
In one example, the cellobiose tolerance of the library was explored in more detail by generating dose-response curves and determining half maximal inhibitory concentration (IC50) values, the point at which the enzyme is 50% inhibited.

[1] = Secondary screening, CBH I levels normalized to 5 μg/mL, cellobiose range 0.00085-100 mM, read-out: IC50
[2] = secondary screening, CBH I levels normalized to 5 μg/mL, cellobiose range 0.0001-100 mM, read-out: Average IC50
[3] = serine variants, unit not given in the legend, read-out: IC50 values (representative IC50 curves, FIG. 9)

| Molecule | IC50 [1] [µM] | IC50 (averaged IC50 values from Tables 8-11, read-out: measured IC50 of cellobiose (merged values)) [µM] | IC50 [2] [µM] | IC50 [3] [µM] |
| --- | --- | --- | --- | --- |
| 268N: CBH I variant with site 268 mutated to asparagine (protein, UniProt P62694 18-513, looked up, variant R268N) Exoglucanase 1: QSACTLQSETHPPLTWQKCSSGGTCTQQTGSVVIDANWRWTHATNSSTNCYDGNTWSSTLCPDNETCAKNCCLDGAAYASTYGVTTSGNSLSIGFVTQSAQKNVGARLYLMASDTTYQEFTLLGNEFSFDVDVSQLPCGLNGALYFVSMDADGGVSKYPTNTAGAKYGTGYCDSQCPRDLKFINGQANVEGWEPSSNNANTGIGGHGSCCSEMDIWEANSISEALTPHPCTTVGQEICEGDGCGGTYSDNNYGGTCDPDGCDWNPYRLGNTSFYGPGSSFTLDTTKKLTVVTQFETSGAINRYYVQNGVTFQQPNAELGSYSGNELNDDYCTAEEAEFGGSSFSDKGGLTQFKKATSGGMVLVMSLWDDYYANMLWLDSTYPTNETSSTPGAVRGSCSTSSGVPAQVESQSPNAKVTFSNIKFGPIGSTGNPSGGNPPGGNRGTTTTRRPATTTGSSPGPTQSHYGQCGGIGYSGPTVCASGTTCQVLNPYYSQCL | 482 | 490 | 405 |  |
| R268D (protein, UniProt P62694 18-513, looked up, variant R268D) Exoglucanase 1: QSACTLQSETHPPLTWQKCSSGGTCTQQTGSVVIDANWRWTHATNSSTNCYDGNTWSSTLCPDNETCAKNCCLDGAAYASTYGVTTSGNSLSIGFVTQSAQKNVGARLYLMASDTTYQEFTLLGNEFSFDVDVSQLPCGLNGALYFVSMDADGGVSKYPTNTAGAKYGTGYCDSQCPRDLKFINGQANVEGWEPSSNNANTGIGGHGSCCSEMDIWEANSISEALTPHPCTTVGQEICEGDGCGGTYSDNDYGGTCDPDGCDWNPYRLGNTSFYGPGSSFTLDTTKKLTVVTQFETSGAINRYYVQNGVTFQQPNAELGSYSGNELNDDYCTAEEAEFGGSSFSDKGGLTQFKKATSGGMVLVMSLWDDYYANMLWLDSTYPTNETSSTPGAVRGSCSTSSGVPAQVESQSPNAKVTFSNIKFGPIGSTGNPSGGNPPGGNRGTTTTRRPATTTGSSPGPTQSHYGQCGGIGYSGPTVCASGTTCQVLNPYYSQCL | 467 |  | 431 |  |
| R268Y (protein, UniProt P62694 18-513, looked up, variant R268Y) Exoglucanase 1: QSACTLQSETHPPLTWQKCSSGGTCTQQTGSVVIDANWRWTHATNSSTNCYDGNTWSSTLCPDNETCAKNCCLDGAAYASTYGVTTSGNSLSIGFVTQSAQKNVGARLYLMASDTTYQEFTLLGNEFSFDVDVSQLPCGLNGALYFVSMDADGGVSKYPTNTAGAKYGTGYCDSQCPRDLKFINGQANVEGWEPSSNNANTGIGGHGSCCSEMDIWEANSISEALTPHPCTTVGQEICEGDGCGGTYSDNYYGGTCDPDGCDWNPYRLGNTSFYGPGSSFTLDTTKKLTVVTQFETSGAINRYYVQNGVTFQQPNAELGSYSGNELNDDYCTAEEAEFGGSSFSDKGGLTQFKKATSGGMVLVMSLWDDYYANMLWLDSTYPTNETSSTPGAVRGSCSTSSGVPAQVESQSPNAKVTFSNIKFGPIGSTGNPSGGNPPGGNRGTTTTRRPATTTGSSPGPTQSHYGQCGGIGYSGPTVCASGTTCQVLNPYYSQCL | 434 |  | 344 |  |
| 268A/411S: CBH I variant with site 268 mutated to alanine and site 411 to serine (protein, UniProt P62694 18-513, looked up, variant R268A R411S) Exoglucanase 1: QSACTLQSETHPPLTWQKCSSGGTCTQQTGSVVIDANWRWTHATNSSTNCYDGNTWSSTLCPDNETCAKNCCLDGAAYASTYGVTTSGNSLSIGFVTQSAQKNVGARLYLMASDTTYQEFTLLGNEFSFDVDVSQLPCGLNGALYFVSMDADGGVSKYPTNTAGAKYGTGYCDSQCPRDLKFINGQANVEGWEPSSNNANTGIGGHGSCCSEMDIWEANSISEALTPHPCTTVGQEICEGDGCGGTYSDNAYGGTCDPDGCDWNPYRLGNTSFYGPGSSFTLDTTKKLTVVTQFETSGAINRYYVQNGVTFQQPNAELGSYSGNELNDDYCTAEEAEFGGSSFSDKGGLTQFKKATSGGMVLVMSLWDDYYANMLWLDSTYPTNETSSTPGAVSGSCSTSSGVPAQVESQSPNAKVTFSNIKFGPIGSTGNPSGGNPPGGNRGTTTTRRPATTTGSSPGPTQSHYGQCGGIGYSGPTVCASGTTCQVLNPYYSQCL |  |  |  | 6800 |
| R268I (protein, UniProt P62694 18-513, looked up, variant R268I) Exoglucanase 1: QSACTLQSETHPPLTWQKCSSGGTCTQQTGSVVIDANWRWTHATNSSTNCYDGNTWSSTLCPDNETCAKNCCLDGAAYASTYGVTTSGNSLSIGFVTQSAQKNVGARLYLMASDTTYQEFTLLGNEFSFDVDVSQLPCGLNGALYFVSMDADGGVSKYPTNTAGAKYGTGYCDSQCPRDLKFINGQANVEGWEPSSNNANTGIGGHGSCCSEMDIWEANSISEALTPHPCTTVGQEICEGDGCGGTYSDNIYGGTCDPDGCDWNPYRLGNTSFYGPGSSFTLDTTKKLTVVTQFETSGAINRYYVQNGVTFQQPNAELGSYSGNELNDDYCTAEEAEFGGSSFSDKGGLTQFKKATSGGMVLVMSLWDDYYANMLWLDSTYPTNETSSTPGAVRGSCSTSSGVPAQVESQSPNAKVTFSNIKFGPIGSTGNPSGGNPPGGNRGTTTTRRPATTTGSSPGPTQSHYGQCGGIGYSGPTVCASGTTCQVLNPYYSQCL | 484 |  | 320 |  |
| 268S: CBH I variant with site 268 mutated to serine (protein, UniProt P62694 18-513, looked up, variant R268S) Exoglucanase 1: QSACTLQSETHPPLTWQKCSSGGTCTQQTGSVVIDANWRWTHATNSSTNCYDGNTWSSTLCPDNETCAKNCCLDGAAYASTYGVTTSGNSLSIGFVTQSAQKNVGARLYLMASDTTYQEFTLLGNEFSFDVDVSQLPCGLNGALYFVSMDADGGVSKYPTNTAGAKYGTGYCDSQCPRDLKFINGQANVEGWEPSSNNANTGIGGHGSCCSEMDIWEANSISEALTPHPCTTVGQEICEGDGCGGTYSDNSYGGTCDPDGCDWNPYRLGNTSFYGPGSSFTLDTTKKLTVVTQFETSGAINRYYVQNGVTFQQPNAELGSYSGNELNDDYCTAEEAEFGGSSFSDKGGLTQFKKATSGGMVLVMSLWDDYYANMLWLDSTYPTNETSSTPGAVRGSCSTSSGVPAQVESQSPNAKVTFSNIKFGPIGSTGNPSGGNPPGGNRGTTTTRRPATTTGSSPGPTQSHYGQCGGIGYSGPTVCASGTTCQVLNPYYSQCL | 452 |  | 406 | 450 |
| 411 S: CBH I variant with site 411 mutated to serine (protein, UniProt P62694 18-513, looked up, variant R411S) Exoglucanase 1: QSACTLQSETHPPLTWQKCSSGGTCTQQTGSVVIDANWRWTHATNSSTNCYDGNTWSSTLCPDNETCAKNCCLDGAAYASTYGVTTSGNSLSIGFVTQSAQKNVGARLYLMASDTTYQEFTLLGNEFSFDVDVSQLPCGLNGALYFVSMDADGGVSKYPTNTAGAKYGTGYCDSQCPRDLKFINGQANVEGWEPSSNNANTGIGGHGSCCSEMDIWEANSISEALTPHPCTTVGQEICEGDGCGGTYSDNRYGGTCDPDGCDWNPYRLGNTSFYGPGSSFTLDTTKKLTVVTQFETSGAINRYYVQNGVTFQQPNAELGSYSGNELNDDYCTAEEAEFGGSSFSDKGGLTQFKKATSGGMVLVMSLWDDYYANMLWLDSTYPTNETSSTPGAVSGSCSTSSGVPAQVESQSPNAKVTFSNIKFGPIGSTGNPSGGNPPGGNRGTTTTRRPATTTGSSPGPTQSHYGQCGGIGYSGPTVCASGTTCQVLNPYYSQCL | 895 |  | 762 | 890 |
